# Data reported in the supplement of paper PMC12764529.
# ± gives the half width of the 95% confidence interval.
# Experiments:
# [1] = folding stability dG unfold from trypsin proteolysis; higher = more stable
# Method in brief: (§1)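 Designed mini-proteins (under 80 residues, no cysteine) in a PA-tagged cDNA display construct were digested with trypsin and chymotrypsin. Each protease was used at 11 concentrations (threefold dilutions) plus a no-protease condition, followed by sequencing. K50 was inferred by Bayesian fitting of sequencing counts, and unfolding free energy was derived against a sequence-predicted unfolded-state K50 and a shared folded-state K50, per protease or combined. Only designs with AlphaFold2 dimer inter-PAE above 15 were kept.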
# [2] = folding stability dG unfold (combined trypsin and chymotrypsin); higher = more stable
# Method in brief: as §1
# [3] = folding stability dG unfold from chymotrypsin proteolysis; higher = more stable
# Method in brief: as §1
Sequence,folding stability dG unfold [1] [kcal/mol],folding stability dG unfold [2] [kcal/mol],folding stability dG unfold [3] [kcal/mol]
SAGGSAGGSAGGEKKKIAKKIKEELEKKGIKVKKVETSEDYIYITFEDGSKKKIKIDKGSAGGSAGGSAGGS [r10_169_TrMRF],2.1 ± 0.16,1.74 ± 0.2,1.6 ± 0.18
SAGGSAGGSAGGELKAKFETFPSPYGKVILAEAEFEEPNLLAAIVIDEDGVPHLLVVSPDSAGGSAGGSAGG [r7_187_TrMRF],1.13 ± 0.064,0.952 ± 0.12,0.858 ± 0.076
SAGGSAGGSAGGELVLKIKVKPGEKVKLKLKLFDKNGKLVEEFEVEVEVVKEGDTLYIRLSAGGSAGGSAGG [r7_63_TrROS_Hall],2.69 ± 0.064,3.67 ± 0.11,4.03 ± 0.052
SAGGSAGGSAGGENDWIPIRMEMTFKLPNGVKITIKMEMWVQPDGDILGMRIHDIEIEVPSAGGSAGGSAGG [r7_356_TrROS],3.6 ± 0.21,4.54 ± 0.21,4.75 ± 0.12
SAGGSAGGSAGGENPEYKPKLLVLVKLEVNGEYYYREFETLEELENYNDPNLKVVAVADLSAGGSAGGSAGG [r7_793_TrMRF],1.27 ± 0.033,1.02 ± 0.083,0.653 ± 0.11
SAGGSAGGSAGGEPELVFKVRVRTKDGRELEIEVSAEDLEKLLEALPDIEEVEIEEVEPSAGGSAGGSAGGS [r10_437_TrROS_Hall],2.39 ± 0.087,2.6 ± 0.14,2.68 ± 0.071
SAGGSAGGSAGGFRIKITEIWPISMEMRKPDPENGKWKEQPMTIMIIRIKIENLPPGAKISAGGSAGGSAGG [r17_530_TrROS],2.54 ± 0.048,3.41 ± 0.1,3.9 ± 0.079
SAGGSAGGSAGGFTVTVVEPVDPNDPAFKKLMEERGLPPEEVVATKTLTADSEEEIAALLSAGGSAGGSAGG [r11_83_JUSTAS],0.283 ± 0.099,0.238 ± 0.12,0.219 ± 0.15
SAGGSAGGSAGGGELKELLKKNPGPLLLERPENTVSLILYDPKTGTYTVLTFSPTEPIPLSAGGSAGGSAGG [r7_84_JUSTAS],1.27 ± 0.056,1.52 ± 0.14,1.69 ± 0.11
SAGGSAGGSAGGGITIKGPGSVTVTVPASDVASISVDPATGTVTVEIPATGTTLTVPPASAGGSAGGSAGGS [r10_200_JUSTAS],1.03 ± 0.037,0.604 ± 0.07,0.238 ± 0.033
SAGGSAGGSAGGGKLRIKLYHPETGKISEIEVEVPDKPLEEVLEELEKELGVEVVDASLESAGGSAGGSAGG [r7_590_TrMRF],0.941 ± 0.054,1.44 ± 0.14,1.68 ± 0.045
SAGGSAGGSAGGGKTVVYRFPASLTPEQAVDEITAKVPPNYPVIVEYHPESGTFVAYVPSAGGSAGGSAGGS [r10_163_TrMRF],0.725 ± 0.1,0.666 ± 0.15,0.743 ± 0.29
SAGGSAGGSAGGGLEEIKEAIKKLPENVKEITIKLKDGSTIKIRVEKDKDGKYKITIEPSAGGSAGGSAGGS [r10_1017_TrROS_Hall],2.41 ± 0.3,2.5 ± 0.22,2.68 ± 0.15
SAGGSAGGSAGGGLVPIPVNAILLDENGVPKGTFDGYPLLKAGIPLEEFAKKYGFKVETSAGGSAGGSAGGS [r10_153_TrMRF],-1.08 ± 0.37,-0.552 ± 0.16,-0.57 ± 0.24
SAGGSAGGSAGGGMAYTVETEVTLTPDGTRVVRTTVTIEDTEVEETHVTPVAPAAPEGLSAGGSAGGSAGGS [r10_898_JUSTAS],-0.806 ± 0.17,-0.231 ± 0.081,-0.079 ± 0.06
SAGGSAGGSAGGGMIPVSTSETVVPGPSRLVRRTTTTYRDPVTGKLYTTSSTTVLPPAASAGGSAGGSAGGS [r10_190_JUSTAS],-0.396 ± 0.12,0.963 ± 0.045,1.44 ± 0.064
SAGGSAGGSAGGGMKVEKEESPDSTVTETITDPSSENTTIVTKEVLPDGSLKVTETKELPSAGGSAGGSAGG [r7_828_JUSTAS],-0.224 ± 0.087,0.717 ± 0.14,0.987 ± 0.06
SAGGSAGGSAGGGMPSYVTKTTTTTVKITNTTTGGNSTTTTTSTVTVTTTTLLPPGLLASAGGSAGGSAGGS [r10_300_JUSTAS],-0.147 ± 0.052,0.835 ± 0.074,1.2 ± 0.028
SAGGSAGGSAGGGMPVEMKITLYDPDGTKIGEYTLKVKSEEELKKAVEEKGYNYEVDKESAGGSAGGSAGGS [r10_958_JUSTAS],0.198 ± 0.067,0.29 ± 0.1,0.17 ± 0.16
SAGGSAGGSAGGGMRFTVEVEPGKVSYSPGIVNKNTPGSSVSEIITVTVVETNPEKLLLSAGGSAGGSAGGS [r10_654_JUSTAS],-0.499 ± 0.29,0.211 ± 0.19,0.638 ± 0.093
SAGGSAGGSAGGGMTITTTSSVSESDGGLTLSTTTTAFDPVTGTWTPLTTTTTTLPPTTSAGGSAGGSAGGS [r10_51_JUSTAS],1.65 ± 0.065,1.24 ± 0.053,0.778 ± 0.041
